Test results: patent US20120282257A1

Legend:
[1] = biological target: human CD99 on live/intact cells (human) (UniProt P14209); test: flow cytometry, PBMC
[2] = biological target: human CD99 on live/intact cells (human) (UniProt P14209); test: flow cytometry, live MOS cells (osteosarcoma)
[3] = biological target: human CD99 on live/intact cells (human) (UniProt P14209); test: flow cytometry, live MG-63 cells (osteosarcoma)
[4] = biological target: human CD99 on live/intact cells (human) (UniProt P14209); test: flow cytometry, live U2-OS cells (osteosarcoma)
[5] = biological target: human CD99 on live/intact cells (human) (UniProt P14209); test: flow cytometry, live H-825 cells (Ewing sarcoma)
[6] = biological target: human CD99 on live/intact cells (human) (UniProt P14209); test: flow cytometry, live HSSC163 cells (mesenchymal)
[7] = biological target: human CD99 on live/intact cells (human) (UniProt P14209); test: flow cytometry, live HSSC168 cells (mesenchymal)
[8] = biological target: human CD99 on live/intact cells (human) (UniProt P14209); test: flow cytometry, live RD-ES cells (Ewing sarcoma)
[9] = biological target: human CD99 on live/intact cells (human) (UniProt P14209); test: flow cytometry, live RM-82 cells (Ewing sarcoma)
[10] = biological target: human CD99 on live/intact cells (human) (UniProt P14209); test: flow cytometry, live TC-71 cells (Ewing sarcoma)
[11] = biological target: human CD99 on live/intact cells (human) (UniProt P14209); test: flow cytometry, live IOR/OS7 cells (osteosarcoma)
[12] = biological target: human CD99 on live/intact cells (human) (UniProt P14209); test: flow cytometry, live SKES-1 cells (Ewing sarcoma)

Chain of UniProt P14209 (P14209 23-185): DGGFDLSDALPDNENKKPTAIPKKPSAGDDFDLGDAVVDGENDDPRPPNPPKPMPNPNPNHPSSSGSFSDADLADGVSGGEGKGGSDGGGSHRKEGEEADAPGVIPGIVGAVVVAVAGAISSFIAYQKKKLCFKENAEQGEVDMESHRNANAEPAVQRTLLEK

In the case of mAbO13 (antibody), the percent of cells positive [1] is reported as 75 to 100%, the percent of cells positive [2] is reported as 75 to 100% and the percent of cells positive [3] is reported as 75 to 100%. For the same substance, the percent of cells positive [4] was 50 to 75%, the percent of cells positive [5] was 75 to 100% and the percent of cells positive [6] was 50 to 75%. It also gave a percent of cells positive [7] of 75 to 100%, a percent of cells positive [8] of 75 to 100% and a percent of cells positive [9] of 75 to 100%. For the same substance, the percent of cells positive [10] was 75 to 100%, the percent of cells positive [11] was 75 to 100% and the percent of cells positive [12] was 75 to 100%.
